The source of these data is paper PMC4943463.

The target of this data set is A3B-CTD (APOBEC3B C-terminal domain, wild type) (Homo sapiens, UniProt Q9UH17 187-382). Briefly: NMR titration.
A3B-CTD (APOBEC3B C-terminal domain, wild type), sequence (Q9UH17 187-382): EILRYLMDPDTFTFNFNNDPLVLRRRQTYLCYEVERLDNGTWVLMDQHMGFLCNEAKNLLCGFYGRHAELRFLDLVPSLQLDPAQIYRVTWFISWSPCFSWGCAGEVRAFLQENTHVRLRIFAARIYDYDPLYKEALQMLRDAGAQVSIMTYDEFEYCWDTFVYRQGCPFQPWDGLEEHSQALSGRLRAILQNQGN

B1: 9-nt U-containing oligonucleotide ATTTUATTT (ssDNA)
DNA: ATTTUATTT
modifications: deoxyuridine at position 5 (DNA oligonucleotide, U in place of target C)
On to B1, for which the Kd (commonly the free concentration of one partner at which half of the binding sites on the other are occupied at equilibrium, for simple one-to-one binding) was determined as 119 ± 26 µM.
